From patent US20060160117

T1: MTase(R124) (UniProt P10484)
T1 sequence 1: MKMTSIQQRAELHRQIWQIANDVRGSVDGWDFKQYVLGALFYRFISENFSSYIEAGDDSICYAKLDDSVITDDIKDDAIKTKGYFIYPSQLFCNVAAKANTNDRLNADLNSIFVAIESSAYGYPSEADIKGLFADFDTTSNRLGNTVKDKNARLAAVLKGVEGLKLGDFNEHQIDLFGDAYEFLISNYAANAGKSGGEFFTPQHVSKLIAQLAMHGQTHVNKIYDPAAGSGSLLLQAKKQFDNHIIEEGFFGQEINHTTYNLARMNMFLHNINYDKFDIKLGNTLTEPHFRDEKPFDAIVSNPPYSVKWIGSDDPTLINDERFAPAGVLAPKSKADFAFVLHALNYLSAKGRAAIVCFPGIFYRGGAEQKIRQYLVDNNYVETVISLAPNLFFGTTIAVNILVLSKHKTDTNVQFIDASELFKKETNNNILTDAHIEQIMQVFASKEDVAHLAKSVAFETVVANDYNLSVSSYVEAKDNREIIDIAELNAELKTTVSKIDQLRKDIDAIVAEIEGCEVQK
T1 sequence 2: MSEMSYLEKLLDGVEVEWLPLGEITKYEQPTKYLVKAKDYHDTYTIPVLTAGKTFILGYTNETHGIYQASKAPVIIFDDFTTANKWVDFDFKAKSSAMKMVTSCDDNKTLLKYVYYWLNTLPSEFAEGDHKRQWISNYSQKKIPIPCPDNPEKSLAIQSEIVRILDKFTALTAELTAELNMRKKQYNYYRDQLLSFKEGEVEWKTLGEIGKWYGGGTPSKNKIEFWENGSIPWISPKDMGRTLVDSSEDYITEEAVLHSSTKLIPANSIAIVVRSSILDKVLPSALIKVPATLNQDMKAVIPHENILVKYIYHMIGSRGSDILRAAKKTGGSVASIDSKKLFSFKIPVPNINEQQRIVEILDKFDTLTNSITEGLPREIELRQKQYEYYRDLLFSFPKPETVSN

T2: MTase(R124), P10484
T2 chain 1: T1 sequence 1
T2 chain 2: T1 sequence 2

B1: HsdR(R124) (protein)
chain: MTHQTHTIAESNNFIVLDKYIKAEPTGDSYQSESDLERELIQDLRNQGYEFISVKSQSAMLANVREQLQNLNGVVFNDSEWRRFTEQYLDNPSDGILDKTRKIHIDYICDFIFDDERLENIYLIDKKNLMRNKVQIIQQFEQAGSHANRYDVTILVNGLPLVQIELKKRGVAIREAFNQIHRYSKESFNSENSLFKYLQLFVISNGTDTRYFANTTKRDKNSFDFTMNWAKSDNTLIKDLKDFTATCFQKHTLLNVLVNYSVFDSSQTLLVMRPYQIAATERILWKIKSSFTAKNWSKPESGGYIWHTTGSGKTLTSFKAARLATELDFIDKVFFVVDRKDLDYQTMKEYQRFSPDSVNGSENTAGLKRNLDKDDNKIIVTTIQKLNNLMKAESDLPVYNQQVVFIFDECHRSQFGEAQKNLKKKFKRYYQFGFTGTPIFPENALGSETTASVFGRELHSYVITDAIRDEKVLKFKVDYNDVRPQFKSLETETDEKKLSAAENQQAFLHPMRIQEITQYILNNFRQKTHRTFPGSKGFNAMLAVSSVDAAKAYYATFKRLQEEAANKSATYKPLRIATIFSFAANEEQNAIGEISDETFDTSAMDSSAKEFLDAAIREYNSHFKTNFSTDSNGFQNYYRDLAQRVKNQDIDLLIVVGMFLTGFDAPTLNTLFVDKNLRYHGLMQAFSRTNRIYDATKTFGNIVTFRDLERSTIDAITLFGDKNTKNVVLEKSYTEYMEGFTDAATGEAKRGFMTVVSELEQRFPDPTSIESEKEKKDFVKLFGEYLRAENILQNYDEFATLKALQQIDLSDPVAVEKFKAEHYVDDEKFAELQTIRLPADRKIQDYRSAYNDIRDWQRREKEAEKKEKSTTDWDDVVFEVDLLKSQEINLDYILGLIFEHNRQNKGKGEMIEEVKRLIRSSLGNRAKEGLVVDFIQQTNLDDLPDKASIIDAFFTFAQREQQREAEALIKEENLNEDAAKRYIRTSLKREYATENGTELNETLPKLSPLNPQYKTKKQAVFQKIVSFIEKFKGVGGKI

Experiments:
[1] = target: T1, MTase(R124)
[2] = target: T2, MTase(R124), P10484

Row | Molecule | DNA cleavage by the hybrid endonuclease [1] | cleavage of pCFD30 plasmid DNA (agarose gel) [2]
1 | HsdR(prrI) | this hybrid enzyme can only cleave DNA in the presence of extremely high concentrations of HsdR(prrI) | –
2 | B1 | – | The R2-complex was found to cleave the plasmid DNA, as expected. No cleavage was observed for the R1-complex
